B1: FIA^PtaU1: fluorinase of Methanosaeta sp. PtaU1.Bin055, SEQ ID NO: 1, accession OPY51785.1 (protein, listed as Methanosaeta sp.)
chain: MLQNTKNEYKPRDGGGHRPIIGFMSDLGTEDDSVGICKGVMLGLCPDAVIVDISHSMTPWDIDQGSRLIVDLPKFFPNWTTFATTSYRETGTSARSVAIKLPSGHVYVAPNNGLLTRVIEDHGYVEAYEVTTVGAIPAEPEPTWFSRDMVAYPAAAIAAGFPLENVGRPLNDSEIVRADLPRYTQAEDGIIQGIVTTIDRPFGNIWTNIPRRIIENELRIAYGTNIRVVLDNLLVLEVPFMRTFGDVGLKKPMCYINSRGYFSLAYYGGNLADPYNIRRGMPVKIESITR
modifications: Methanosaeta sp. PtaU1.Bin055
B2: FIA^MA37: fluorinase of Streptomyces sp. MA37, SEQ ID NO: 30, accession CDH39444.1 (protein, listed as Streptomyces sp.)
chain: MAANGSQRPIIAFMSDLGTTDDSVAQCKGLMHSICPGVTVVDVCHSMTPWDVEEGARYIVDLPRFFPEGTVFATTTYPATGTTTRSVAVRIRQAAKGGARGQWAGSGDGFERADGSYIYIAPNNGLLTTVLEEHGYIEAYEVTSTKVIPANPEPTFYSREMVAIPSAHLAAGFPLAEVGRRLDDSEIVRFHRPAVEISGEALSGVVTAIDHPFGNIWTNIHRTDLEKAGIGQGKHLKIILDDVLPFEAPLTPTFADAGAIGNIAFYLNSRGYLSLARNAASLAYPYNLKAGLKVRVEAR
modifications: Streptomyces sp. MA37
B3: SalL^Stro: chlorinase from Salinispora tropica CNB-440, accession 2Q6L_A (protein, UniProt A4X3Q0 1-283, looked up)
Adenosyl-chloride synthase: MQHNLIAFLSDVGSADEAHALCKGVMYGVAPAATIVDITHDVAPFDVREGALFLADVPHSFPAHTVICAYVYPETGTATHTIAVRNEKGQLLVGPNNGLLSFALDASPAVECHEVLSPDVMNQPVTPTWYGKDIVAACAAHLAAGTDLAAVGPRIDPKQIVRLPYASASEVEGGIRGEVVRIDRAFGNVWTNIPTHLIGSMLQDGERLEVKIEALSDTVLELPFCKTFGEVDEGQPLLYLNSRGRLALGLNQSNFIEKWPVVPGDSITVSPRVPDSNLGPVLG
B4: DeoD: PNP from E. coli, SEQ ID NO: 15 (protein, listed as Escherichia coli)
chain: MATPHINAEMGDFADVVLMPGDPLRAKYIAETFLEDAREVNNVRGMLGFTGTYKGRKISVMGHGMGIPSCSIYTKELITDFGVKKIIRVGSCGAVLPHVKLRDVVIGMGACTDSKVNRIRFKDHDFAAIADFDMVRNAVDAAKALGIDARVGNLFSADLFYSPDGEMFDVMEKYGILGVEMEAAGIYGVAAEFGAKALTICTVSDHIRTHEQTTAAERQTTFNDMIKIALESVLLGDKE

Experiments:
[1] = 96-well end-point (1 h) fluorinase activity assay; format: biochemical; conditions: purified enzymes, increasing SAM concentrations, 5′-FDA by HPLC
Description: (§1) 96-well activity assays were carried out in 150 μL reactions containing 50 mM HEPES pH 7.8, 75 mM KF, ˜1 μM fluorinase (considering the theoretical molecular mass), and 10, 25, 50, 100, 250, or 500 μM SAM (New England Biolabs). 96-well PCR plates were sealed and incubated for 1 h at 37° C., 5 min at 95° C., and cooled to 10° C. in a thermocycler (Bio-Rad). The plates were then centrifuged for 30 min at 2,500×g and 120 μL of supernatants were transferred to round-bottom 96-well plates (Thermo Scientific), which were sealed with a silicone lid for HPLC analysis. Transhalogenation reactions were carried out in the same way, but using increasing concentrations of 5′-CIDA (5′-chloro-5′-deoxyadenosine) in the presence of 1 mM L-Met.
(§2) 5′-FDA was quantified following absorbance at 230 nm using a Zorbax C18 column (3.5 μm 4.6×100 mm, Agilent) connected to a HPLC system (Dionex Ultimate 3000, ThermoFisher) with the following gradient (1 mL/min flow rate): 5-12% solvent B in 1.5 min, 12% solvent B for 1 min, 12-30% solvent B in 2 min, 30-70% B in 1.5 min (solvent A: 0.05% acetic acid in water; solvent B: acetonitrile). A six-point calibration curve (R2>0.99) was prepared with 0.5-50 μM 5′-FDA, which was chemically synthesized as previously described (Calero et al., 2020).

[2] = End-point (1 h) transhalogenation assay; format: biochemical; conditions: 5′-FDA production from 5′-CIDA, 1 mM L-Met, 75 mM KF, 37° C.
Description: as §1, §2

[3] = Chlorination reaction, KF replaced by KCl; format: biochemical
Description: Since FlA^PtaU1 was predicted to be a chlorinase, we evaluated whether it was also active towards SN2-dependent addition of Cl^− onto SAM. […] Previous studies have shown that FlA^Scat can also catalyze the chlorination reaction (Deng et al., 2006). However, this feature requires the simultaneous removal of L-Met or 5′-CIDA, the reaction products, since the reverse dehalogenation reaction is favored. We could observe transhalogenation on 5′-CIDA (i.e. 5′-FDA production in the presence of L-Met and F^−, steps III and I in FIG. 20, respectively; see FIG. 29). Again, FlA^PtaU1 catalytically outperformed all other fluorinases, with a 3-fold higher Vmax value. Although we cannot rule out that FlA^PtaU1 could execute de novo chlorination, it is clear that the 23-residue loop reportedly found in «conventional» fluorinases is not essential for the activity towards F^−.

[4] = format: cell-based, Pseudomonas putida KT2440; conditions: induction with 15 mM NaF, 20 h, 30° C., LC-MS
[5] = Steady-state fluorination kinetics of purified fluorinases (5′-FDA by HPLC); format: biochemical; conditions: 50 mM HEPES, pH 7.8, 75 mM KF, varying SAM, 37° C., triplicate
Description: as §1
Steady-state kinetics were performed in the same conditions with slight variations. Triplicate reactions (600 μL final volume) were prepared in 1.5-mL tubes and incubated for 5 min at 37° C. before addition of SAM (1.5625-800 μM), after which 90 μL aliquots were removed at different time-points (2, 5, 10, 15, 20 and 30 minutes), boiled for 5 min at 95° C., and placed on ice. Samples were centrifuged at maximum speed for 10 min at 4° C. before being transferred to 96-well plates for 5′-FDA quantitation by HPLC analysis. Product formation rates for the different substrate concentrations were calculated by least squares linear regression with at least three time-points and fitted to the Michaelis-Menten equation using the Origin software (OriginLab Corporation).
as §2

[6] = Eustaquio et al., 2008; cited from earlier work
[7] = Coupled enzymatic assay, conversion of 5′-FDA into FAld; format: biochemical; conditions: with isomerase^S. cattleya and aldolase^S. coelicolor
Description: Coupled isomerase and aldolase activity was monitored by following the consumption of DHAP, through NADH reduction at 340 nm (ε=6220 M^−1 cm^−1) via the activity of a Glycerol-3-Phosphate Dehydrogenase (GPDH, Sigma Aldrich). 5′-FDRP was produced by incubating chemically synthetized 5′-FDA (Calero et al. 2020) at 7.43 mM with 0.5 U Nucleoside Phosphorylase (PNP1, Sigma Aldrich) in 10 mM Tris buffer, for 16 h at 30° C. The assay was carried in 200 μl total volume at 30° C. over a time course of 3 hours. Reaction conditions were 50 mM Tris-HCl Buffer pH7.5, 200 μM NADH, 200 μM 5′-FDRP, 1 U GPDH and 10 μg purified of each enzyme. The reduction of NADH was followed at absorbance 340 nm in a Microtiter Plate reader (BioTek, Elx808).
We used this enzymatic assay with cell-free extracts of cultures of P. putida KT2440::FRS-T7RNAP expressing an isomerase and an aldolase from S. cattleya (isoSc, isomerase^S. cattleya) and S. coelicolor (aldSc, aldolase^S. coelicolor), respectively, that have been previously shown that are able to use fluorinated intermediates (Deng et al., 2008), as well as both an isomerase (isoBt, isomerase^B. thuringiensis) and an aldolase (aldBt) from B. thuringiensis that have been previously described to perform the same reaction with the non-fluorinated metabolites (Beaudoin 2018). […]

| Molecule | Production of 5′-FDA in vivo [4] | Km [5] | kcat [5] | other results |
| --- | --- | --- | --- | --- |
| B1 | could be detected | 6.99 ± 1.06 µM | 0.00683 ± 0.00017 s⁻¹ | 5′-FDA synthase activity [1]: one of the top performers; Vmax, fold higher than all other fluorinases [2]: 3 fold; 5′-CIDA accumulation [3]: no 5′-CIDA accumulation could be detected; intracellular 5′-FDA, fold higher with respect to the other three fluorinase genes [4]: 6- to 12 fold |
| B2 | could be detected | 4.42 ± 0.58 µM | 0.00267 ± 0.00017 s⁻¹ | – |
| B3 | – | – | – | activity on F^− [6]: inactive on F^− |
| B4 | – | – | – | conversion of 5′-FDA into FAld [7]: conversion was higher |

Source: US20250388936A1, “METHODS AND CELLS FOR THE PRODUCTION OF FLUORINATED COMPOUNDS” (priority 2022, published 2025)
